The values that follow come from patent publication US20200247855A1, “THERAPY AND DIAGNOSTICS” (OXFORD UNIVERSITY INNOVATION LIMITED, priority 2017, published 2020).

Test [1] deals with leucocyte recruitment to the zymosan air-pouch. The test can be described thus: Zymosan subcutaneous dorsal air-pouch inflammation model. The format is in vivo. The settings on record: 5 mg/kg, exudate at 24 hours, mouse. As for the experimental part: Zymosan or PBS (control) was injected into the air-pouch (a.p.) on day 6. Peptide or protein (blue) was injected into the air-pouch on day 6 at the time of zymosan injection and repeated 9 hours later. Air-pouch exudate was collected and analysed on day 7 by flow cytometry (FC).
G. Experimental design to assess efficacy of intraperitoneally administered peptide. This is identical to that used for locally administered peptide (above) except that peptide or protein was administered intraperitoneally (i.p.).
C57BL/6J male mice (25-30 g, 8-10-week-old) were obtained from Charles River (UK). They were group housed in temperature and humidity-controlled rooms, kept on a 12-hr light-dark cycle, and provided with food and water ad libitum. Air pouches were established at the dorsal side of the mice as described (Duarte, D. B. et al., Curr Protoc Pharmacol [2016]). […] Total numbers of leucocytes, neutrophils, monocytes, T-cells and eosinophils were counted using an Attune N×T flow cytometer following staining with cell specific antibodies. […]
To characterize the inflammatory subsets in the pouch, multi-colour fluorescence cell staining was conducted using the combination of the following antibodies for various immune cells. […] Data were analysed using FlowJo by an observer blinded to the treatment received. […]

The target in a further test is T1, CCL24_HUMAN (Homo sapiens, UniProt O00175).
T1 sequence (O00175 27-119): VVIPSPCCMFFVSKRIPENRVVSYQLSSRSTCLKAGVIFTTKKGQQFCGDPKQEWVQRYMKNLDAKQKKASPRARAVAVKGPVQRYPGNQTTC
The settings on record: read-out: Kd, CCL24_HUMAN, previously described evasins; data obtained from publications [20-22,32]; cited from earlier work.

The next test addresses CCL13_HUMAN (Homo sapiens, UniProt Q99616). The settings on record: data obtained from publications [20-22,32]; cited from earlier work.
In another test the target is T2, CCL25_HUMAN (Homo sapiens, UniProt O15444).
T2 sequence (O15444 24-150): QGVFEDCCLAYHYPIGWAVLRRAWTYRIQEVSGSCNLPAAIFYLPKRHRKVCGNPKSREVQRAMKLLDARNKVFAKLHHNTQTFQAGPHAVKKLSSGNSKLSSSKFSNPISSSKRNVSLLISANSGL
The settings on record: read-out: Kd, CCL25_HUMAN, previously described evasins; data obtained from publications [20-22,32]; cited from earlier work.

The target in a further test is T3, CCL18_HUMAN (Homo sapiens, UniProt P55774).
T3 sequence (P55774 21-89): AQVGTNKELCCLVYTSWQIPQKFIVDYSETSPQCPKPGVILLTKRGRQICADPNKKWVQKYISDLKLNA
The settings on record: read-out: Kd, CCL18_HUMAN, previously described evasins; data obtained from publications [20-22,32]; cited from earlier work.

For another test, the target named is T4, CCL27_HUMAN (Homo sapiens, UniProt Q9Y4X3).
T4 sequence (Q9Y4X3 25-112): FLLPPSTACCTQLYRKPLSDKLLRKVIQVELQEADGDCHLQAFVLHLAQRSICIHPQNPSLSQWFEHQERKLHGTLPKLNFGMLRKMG
The settings on record: data obtained from publications [20-22,32]; cited from earlier work.

In a further test the target is T5, CCL21_HUMAN (Homo sapiens, UniProt O00585).
T5 sequence (O00585 24-134): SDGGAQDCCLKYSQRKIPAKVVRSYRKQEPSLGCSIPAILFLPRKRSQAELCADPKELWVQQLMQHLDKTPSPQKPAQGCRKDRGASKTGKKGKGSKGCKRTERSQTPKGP
The settings on record: data obtained from publications [20-22,32]; read-out: Kd, CCL21_HUMAN, previously described evasins; cited from earlier work.

CCL13_HUMAN, sequence (Q99616 17-98): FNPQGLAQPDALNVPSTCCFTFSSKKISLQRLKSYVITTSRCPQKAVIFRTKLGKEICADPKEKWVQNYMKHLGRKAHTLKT

B1: P672_RHIPU: tick CKBP, Rhipicephalus pulchellus (protein, listed as Rhipicephalus pulchellus)
chain: VCEVSEQEGVGEDNATEDEDYEDFFKPVTCYFANSTVGPLRPPNCTVVCTNNTAWWNDTKSDGGHCYSEYRPEKRTHSREIYNCTIGVCGNGTCIANHTYADCW
With B1, the “Number of neutrophils, eosinophils, monocytes and T-cells recruited to the air-pouch, local administration” value in test [1] (injected into the air-pouch at 0 and 9 h) is “strong and significant reduction”. Further, the “Number of neutrophils, eosinophils, monocytes and T-cells recruited to the air-pouch, intraperitoneal administration” value in test [1] (injected intraperitoneally at 0 and 9 h) was “substantial and significant reduction”.

B2: EVASIN4: previously described tick CKBP evasin 4, from Rhipicephalus sanguineus (protein, listed as Rhipicephalus sanguineus)
chain: EVPQMTSSSAPDLEEEDDYTAYAPLTCYFTNSTLGLLAPPNCSVLCNSTTTWFNETSPNNASCLLTVDFLTQDAILQENQPYNCSVGHCDNGTCAGPPRHAQCW
As for B2, the dissociation constant (Kd) with CCL24_HUMAN was 0.41 nM; with CCL25_HUMAN it was 69.6 nM; in the test with CCL18_HUMAN, 0.03 nM; with CCL21_HUMAN it was 0.01 nM. Moreover, the “Kd, CCL13_HUMAN, previously described evasins” value in the test with CCL13_HUMAN is “No Binding”. In addition, in the test with CCL27_HUMAN, the “Kd, CCL27_HUMAN, previously described evasins” value is listed as “No Binding”.
